According to US20050196396A1 (GREENVILLE HOSPITAL SYSTEM, published 2005):

Biological target: T1, KDR (full length, on cells) (human, UniProt P35968 20-1356)
T1 construct: whole, on cells; also called VEGFR2; kinase domain receptor
Test: radioligand binding on HUVEC; 125I-KDR (Ig4-7) displaced by unlabeled KDR (Ig4-7)
Experimental: ¹²⁵I-KDR (Ig4-7) (100,000 cpm=<1 ng) was incubated with HUVEC.
Total binding of KDR (Ig4-7) was also compared between HUVEC and two human breast cancer cell lines that were reported to have KDR expression (T47-D and MCF-7 cell lines) (FIG. 7). Specific binding of KDR (Ig4-7) was approximately 88%.

T1 sequence (P35968 20-1356): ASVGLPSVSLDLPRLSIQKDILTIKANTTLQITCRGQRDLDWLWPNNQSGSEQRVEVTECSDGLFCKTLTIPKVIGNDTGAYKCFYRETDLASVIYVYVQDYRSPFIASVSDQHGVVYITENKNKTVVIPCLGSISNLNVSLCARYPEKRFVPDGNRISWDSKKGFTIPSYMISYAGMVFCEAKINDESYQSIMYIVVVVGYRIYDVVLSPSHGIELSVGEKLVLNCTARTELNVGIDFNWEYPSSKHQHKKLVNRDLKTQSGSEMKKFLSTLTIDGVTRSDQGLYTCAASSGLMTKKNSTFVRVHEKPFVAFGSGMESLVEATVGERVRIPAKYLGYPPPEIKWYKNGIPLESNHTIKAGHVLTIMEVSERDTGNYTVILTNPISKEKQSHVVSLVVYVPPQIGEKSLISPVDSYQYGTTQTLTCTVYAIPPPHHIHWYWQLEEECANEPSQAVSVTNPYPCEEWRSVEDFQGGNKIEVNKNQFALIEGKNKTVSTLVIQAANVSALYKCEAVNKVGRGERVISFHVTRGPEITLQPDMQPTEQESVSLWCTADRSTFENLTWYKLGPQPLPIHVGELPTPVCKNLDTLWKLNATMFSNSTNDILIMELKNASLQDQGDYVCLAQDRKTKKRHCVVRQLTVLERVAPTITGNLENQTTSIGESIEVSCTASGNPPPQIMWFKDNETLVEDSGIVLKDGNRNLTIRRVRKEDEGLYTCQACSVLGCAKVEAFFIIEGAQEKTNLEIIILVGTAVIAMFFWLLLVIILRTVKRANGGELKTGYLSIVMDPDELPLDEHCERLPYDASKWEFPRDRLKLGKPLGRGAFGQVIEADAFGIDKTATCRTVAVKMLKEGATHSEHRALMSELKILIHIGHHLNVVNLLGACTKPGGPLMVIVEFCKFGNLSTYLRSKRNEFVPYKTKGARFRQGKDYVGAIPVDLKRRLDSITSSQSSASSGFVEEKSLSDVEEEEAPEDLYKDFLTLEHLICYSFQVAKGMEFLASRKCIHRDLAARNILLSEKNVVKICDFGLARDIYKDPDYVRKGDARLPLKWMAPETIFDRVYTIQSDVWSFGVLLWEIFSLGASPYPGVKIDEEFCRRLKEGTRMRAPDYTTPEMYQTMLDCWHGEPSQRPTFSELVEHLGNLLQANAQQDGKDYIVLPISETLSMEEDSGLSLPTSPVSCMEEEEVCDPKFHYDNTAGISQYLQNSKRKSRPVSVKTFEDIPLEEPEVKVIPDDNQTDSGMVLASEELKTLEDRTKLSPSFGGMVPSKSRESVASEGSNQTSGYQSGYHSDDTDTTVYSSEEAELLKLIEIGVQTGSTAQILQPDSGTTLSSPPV

EC50: ~10 µg/mL
B1: KDR (Ig4-7) (receptor)
chain: HMFVAFGSGMESLVEATVGERVRIPAKYLGYPPPEIKWYKNGIPLESNHTIKAGHVLTIMEVSERDTGNYTVILTNPISKEKQSHVVSLVVYVPPQIGEKSLISPVDSYQYGTTQTLTCTVYAIPPPHHIHWYWQLEEECANEPSQAVSVTNPYPCEEWRSVEDFQGGNKIEVNKNQFALIEGKNKTVSTLVIQAANVSALYKCEAVNKVGRGERVISFHVTRGPEITLQPDMQPTEQESVSLWCTADRSTFENLTWYKLGPQPLPIHVGELPTPVCKNLDTLWKLNATMFSNSTNDILIMELKNASLQDQGDYVCLAQDRKTKKRHCVVRQLTVLERVAPTITGNLENQTTSIGESIEVSCTASGNPPPQIMWFKDNETLVEDSGIVLKDGNRNLTIRRVRKEDEGLYTCQACSVLGCAKVEAFFIIEGAQEK
modifications: 125I-labeled as tracer (labelled residues not stated); unlabeled as competitor
notes: also called 125I-KDR (Ig4-7); 125I-labeled KDR (Ig4-7)
